The source of these data is publication PMC12493170, “Functional and structural characterization of AtAbf43C: an exo-1,5-α-L-arabinofuranosidase from Acetivibrio thermocellus DSM1313” (Biochemical Journal, 2025).

Data set [1] addresses T1, AtAbf43C (Acetivibrio thermocellus, UniProt A3DHB3, D187A).
T1 construct: gene Cthe_2138; residues 21-511 of 580, no signal peptide or dockerin I domain, C-terminal LEHHHHHH tag, pET28b(+), E. coli BL21(DE3) Rosetta2
As to the kind of experiment: pNP release at […] nm, activity relative to wild type. The class given is biochemical. To be noted: 5 mM substrate, pH 5.5 sodium acetate, 65 °C, 10 min; catalytic residue.

Data set [2] deals with T2, AtAbf43C (Acetivibrio thermocellus, UniProt A3DHB3, E363A).
T2 construct: gene Cthe_2138; residues 21-511 of 580, no signal peptide or dockerin I domain, C-terminal LEHHHHHH tag, pET28b(+), E. coli BL21(DE3) Rosetta2
The data set is described as above. The data set is classed as biochemical. To be noted: 5 mM substrate, pH 5.5 sodium acetate, 65 °C, 10 min; catalytic residue.

The target of data set [3] is T3, AtAbf43C (Acetivibrio thermocellus, UniProt A3DHB3, D302A).
T3 construct: gene Cthe_2138; residues 21-511 of 580, no signal peptide or dockerin I domain, C-terminal LEHHHHHH tag, pET28b(+), E. coli BL21(DE3) Rosetta2
The description is as above. The class given is biochemical. To be noted: 5 mM substrate, pH 5.5 sodium acetate, 65 °C, 10 min; catalytic residue.

Substrate in data set [4]: O=[N+]([O-])c1ccc(O[C@@H]2O[C@@H](CO)[C@H](O)[C@H]2O)cc1
The data set can be described thus: purified protein. The class given is biochemical, Acetivibrio thermocellus. To be noted: pH 5.5, 100 mM sodium acetate, 65 °C, 2 min, 0.9-36 mM substrate, full saturation not achieved.

T2 sequence (A3DHB3 entry or part of it E363A): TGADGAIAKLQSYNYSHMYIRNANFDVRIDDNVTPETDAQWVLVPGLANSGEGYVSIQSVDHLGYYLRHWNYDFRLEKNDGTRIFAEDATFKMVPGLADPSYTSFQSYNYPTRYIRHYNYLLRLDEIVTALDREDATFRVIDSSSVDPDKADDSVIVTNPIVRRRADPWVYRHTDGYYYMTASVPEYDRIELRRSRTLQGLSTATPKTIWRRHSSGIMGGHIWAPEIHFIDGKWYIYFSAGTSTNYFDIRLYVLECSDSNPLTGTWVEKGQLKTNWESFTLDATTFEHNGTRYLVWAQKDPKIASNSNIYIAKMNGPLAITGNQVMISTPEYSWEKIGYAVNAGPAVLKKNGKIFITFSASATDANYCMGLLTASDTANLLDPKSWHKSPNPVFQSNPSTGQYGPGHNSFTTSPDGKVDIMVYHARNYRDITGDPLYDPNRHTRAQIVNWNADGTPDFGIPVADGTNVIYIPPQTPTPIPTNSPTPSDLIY
T3 sequence (A3DHB3 entry or part of it D302A): as the sequence (A3DHB3 entry or part of it E363A) above, with D282A, A343E counted along it
T1 sequence (A3DHB3 entry or part of it D187A): as the sequence (A3DHB3 entry or part of it E363A) above, with D167A, A343E counted along it

Turning to `O=[N+]([O-])c1ccc(O[C@@H]2O[C@@H](CO)[C@H](O)[C@H]2O)cc1` [pNPAra, para-nitrophenol-α-L-arabinofuranoside], the “% activity relative to wildtype” value in data set [1], in data set [2] and in data set [3] was “activity on pNPAra was completely eliminated in any of the versions” in each case.

B1: AtAbf43C_GH43 (Acetivibrio thermocellus ATCC 27405) (protein)
chain: DPDKADDSVIVTNPIVRRRADPWVYRHTDGYYYMTASVPEYDRIELRRSRTLQGLSTATPKTIWRRHSSGIMGGHIWAPEIHFIDGKWYIYFSAGTSTNYFDIRLYVLECSDSNPLTGTWVEKGQLKTNWESFTLDATTFEHNGTRYLVWAQKDPKIASNSNIYIAKMNGPLAITGNQVMISTPEYSWEKIGYAVNEGPAVLKKNGKIFITFSASATDANYCMGLLTASDTANLLDPKSWHKSPNPVFQSNPSTGQYGPGHNSFTTSPDGKVDIMVYHARNYRDITGDPLYDPNRHTRAQIVNWNADGTPDFGIPVADGTNVIYIPPQ
notes: isolated GH43 catalytic domain, residues 167-494, no CBM42, cloned in pET28b(+) and IMAC-purified, E. coli BL21(DE3) Rosetta2
As to B1, in data set [4], the Michaelis-Menten constant (Km) (usually the substrate concentration at which the rate is half of its maximum) was 59.6 ± 12.1 mM; the kcat (in general, the number of substrate molecules converted per active site and unit of time at saturation) was 238 ± 33.4 s⁻¹; the specificity constant (kcat/Km) – broadly, the second-order rate constant that governs catalysis at low substrate concentration – worked out at 4000 ± 1000 M⁻¹ s⁻¹.

B2: AtAbf43C (Acetivibrio thermocellus ATCC 27405) (protein)
chain: TGADGAIAKLQSYNYSHMYIRNANFDVRIDDNVTPETDAQWVLVPGLANSGEGYVSIQSVDHLGYYLRHWNYDFRLEKNDGTRIFAEDATFKMVPGLADPSYTSFQSYNYPTRYIRHYNYLLRLDEIVTALDREDATFRVIDSSSVDPDKADDSVIVTNPIVRRRADPWVYRHTDGYYYMTASVPEYDRIELRRSRTLQGLSTATPKTIWRRHSSGIMGGHIWAPEIHFIDGKWYIYFSAGTSTNYFDIRLYVLECSDSNPLTGTWVEKGQLKTNWESFTLDATTFEHNGTRYLVWAQKDPKIASNSNIYIAKMNGPLAITGNQVMISTPEYSWEKIGYAVNEGPAVLKKNGKIFITFSASATDANYCMGLLTASDTANLLDPKSWHKSPNPVFQSNPSTGQYGPGHNSFTTSPDGKVDIMVYHARNYRDITGDPLYDPNRHTRAQIVNWNADGTPDFGIPVADGTNVIYIPPQTPTPIPTNSPTPSDLIY
notes: residues 21-511 of 580, no signal peptide or dockerin I domain, C-terminal LEHHHHHH tag, pET28b(+), E. coli BL21(DE3) Rosetta2
Consider B2, for which, in data set [4], the Km is 22.7 ± 4.1 mM, the kcat was 269 ± 25.5 s⁻¹ and the catalytic efficiency (kcat/Km) is 11900 ± 2400 M⁻¹ s⁻¹.
